# Laboratory results from US20110300156A1 (Genmab, published 2011).
# T1: murine tissue factor (TF) on transfected HEK293F cells (murine, UniProt P20352 29-294)
# T1 construct: whole, on cells; also called murine TF; TFmm
# T1 sequence (looked up): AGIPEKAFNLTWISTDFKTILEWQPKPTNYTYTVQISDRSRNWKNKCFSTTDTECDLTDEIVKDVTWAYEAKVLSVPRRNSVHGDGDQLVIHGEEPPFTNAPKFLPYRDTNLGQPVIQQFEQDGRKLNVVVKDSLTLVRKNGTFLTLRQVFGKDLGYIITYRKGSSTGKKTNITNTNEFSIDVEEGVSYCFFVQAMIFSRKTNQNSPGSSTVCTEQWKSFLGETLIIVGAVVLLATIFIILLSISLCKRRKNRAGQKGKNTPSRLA
# Experiments:
# [1] = molecular target: T2, human tissue factor (TF), membrane-bound on cells (human, UniProt P13726 33-295); assay: FACS, Fab fragment on BxPC3 cells
# T2 construct: whole, on cells; also called cellular TF
# Description: (§1) Cells were resuspended in PBS (2×10⁶ cells/ml), put in 96-well V-bottom plates (50 μl/well). 50 μl of serially diluted HuMab in FACS buffer (PBS supplemented with 0.1% BSA and 0.02% Na-azide) was added to the cells and incubated for 30 minutes on ice. After washing three times with FACS buffer, 50 μl of phycoerythrin (PE)-conjugated goat anti-human IgGFc (Jackson ImmunoResearch), diluted 1:100 in FACS buffer, was added. After 30 minutes on ice (in the dark), cells were washed three times, and specific binding of the HuMabs was detected by flow cytometry on a FACSCalibur (BD Biosciences). HuMab-KLH was used as a negative control. Mouse anti-TF followed by PE-conjugated anti-mouse IgGFc was used as positive control. Binding curves were analyzed using non-linear regression (sigmoidal dose-response with variable slope) using GraphPad Prism V4.03 software (GraphPad Software, San Diego, Calif., USA).
# (§2) Binding of Fab fragments of anti-TF HuMabs to TF was measured by ELISA (coated extracellular domain of TF) and by FACS (TF on BxPC3 cells). ELISA was performed essentially as described supra. Bound Fab fragments were detected using HRP-conjugated donkey-anti human H+L. FACS analysis was performed essentially as described supra. FITC-conjugated goat anti-human IgG (H+L) (Jackson) was used to detect bound lead candidates. Fluorescence was measured on a FACSCantoII. Binding curves were analyzed as described supra, using GraphPad Prism 5 software.
# [2] = molecular target: T3, TFECDHis (extracellular domain of tissue factor, amino acid 1-251, with C-terminal His tag) (human, UniProt P13726 33-251); assay: ELISA, Fab fragment on coated extracellular domain of TF
# T3 construct: range 1-251; The stated range 1-251 starts at residue 1 of NP-001984; also called extracellular domain of TF
# Description: The specificity of the obtained anti-TF HuMabs was evaluated by ELISA. ELISA plates (Microlon; Greiner Bio-One) were coated overnight at +4° C. with 0.5 μg/mL of TFECDHis in PBS, pH 7.4. Coated ELISA plates were emptied and blocked for one hour at room temperature with 2% (v/v) chicken serum (Gibco, Paisley, Scotland) in PBS and washed with PBS containing 0.05% Tween 20 (PBST). Subsequently, HuMabs, serially diluted in PBSTC (PBS supplemented with 2% (v/v) chicken serum and 0.05% (v/v) Tween-20), were incubated for 1 hr at RT under shaking conditions (300 rpm). Bound HuMabs were detected using HRP-conjugated goat-anti-human IgG antibodies (Jackson ImmunoResearch) diluted 1:5,000 in PBSTC, which were incubated for 1 hr at RT under shaking conditions (300 rpm). […] HuMab-KLH (a human monoclonal antibody against KLH (keyhole limpet haemocyanin)), was used as a negative control. Mouse anti-human TF (ERL) was used as positive control (HRP labeled anti-mouse IgG as conjugate). Binding curves were analyzed using non-linear regression (sigmoidal dose-response with variable slope) using GraphPad Prism V4.03 software.
# as §2
# [3] = molecular target: T1, murine tissue factor (TF) on …; assay: FACS on transfected HEK293F cells, 30 µg/mL antibody [Figure 18; no figure label on the sheet]
# Description: as §1
# To determine domains important for binding of anti-TF HuMabs to human TF, DNA shuffling was performed between human and murine TF. Shuffle constructs were prepared from DNA encoding human TF, by replacing human domains with murine domains and from DNA encoding murine TF by replacing murine domains with human domains.
EC50 [1] [µg/mL],EC50 [2] [µg/mL],binding result [3],Binder
8.04,0.59,–,"HuMab-TF-044 Fab fragment (Fab, V domains shown, Fab fragment of the HuMab; VH and VL as for the parent antibody) VH: QVQLVESGGGVVQPGRSLRLSCAASGFTFSDYAMHWVRQAPGKGLEWVAVIPYDGDNKYYADSVKGRFTISRDNSKNTLYLQMNSLRAEDTAVYYCAREDWGLEVDYWGQGALVTVSS VL: AIQLTQSPSSLSASVGDRVTITCRASQGINSALAWYQQKPGKAPKLLIYDASSLESGVPSRFSGSGSGTDFTLTISSLQPEDFATYYCQQFNSYPLTFGGGTKVEIK"
–,–,no binding (tested: 30 µg/mL),"anti-TF HuMab 017-D12 (antibody, V domains shown, Human monoclonal antibody from HuMab mice) VH: EVQLLESGGGLVQPGGSLRLSCAASGFTFSSYAMSWVRQAPGKGLEWVSAISGSGDSTNYADSVKGRFTISRDNSKNTLYLQMNSLRAEDTAVYYCAKDGYFLLWYFDLWGRGTLVTVSS VL: not shown"
0.143,0.02,–,"HuMab-TF-109 Fab fragment (Fab, V domains shown, Fab fragment of the HuMab; VH and VL as for the parent antibody) VH: QVQLVESGGGVVQPGRSLRLSCPASGFTFSIYAMHWVRQAPGKGLEWVAVVSNDGYNKYYADSVKGRFTISRDNSKDTLYLQMNSLRAEDTAVYYCARDGQLGRGYFDYWGQGTLVTVSS VL: EIVLTQSPATLSLSPGERAILSCRASQSVSSYLAWYQQKPGQAPRLLIYDASNRATGIPARFSGSGSGTDFTLTISSLEPEDFAVYYCQQRSNWPLTFGGGTKVEIK"
–,3.14,–,"HuMab-TF-111 Fab fragment (Fab, V domains shown, Fab fragment of the HuMab; VH and VL as for the parent antibody) VH: QVQLVESGGGVVQPGRSLRLSCAGSGFTFNRYAMYWVRQAPGKGLDWVAVISNDGINKYYADSVKGRFTISRDNSKNTLYLQMNSLRAEDTAVYYCARDHTMVRGAFDYWGQGTLVTVSS VL: EIVLTQSPATLSLSPGERATLSCRASQSVSSYLAWYQQKPGQAPRLLIYDASNRATGIPARFSGSGSGTDFTLTISSLEPEDFAVYYCQQRSNWPLTFGGGTKVEIK"
0.132,0.04,–,"HuMab-TF-011 Fab fragment (Fab, V domains shown, Fab fragment of the HuMab; VH and VL as for the parent antibody; also called -011 Fab fragments) VH: EVQLLESGGGLVQPGGSLRLSCAASGFTFSNYAMSWVRQAPGKGLEWVSSISGSGDYTYYTDSVKGRFTISRDNSKNTLYLQMNSLRAEDTAVYYCARSPWGYYLDSWGQGTLVTVSS VL: DIQMTQSPPSLSASAGDRVTITCRASQGISSRLAWYQQKPEKAPKSLIYAASSLQSGVPSRFSGSGSGTDFTLTISSLQPEDFATYYCQQYNSYPYTFGQGTKLEIK"
–,1.98,–,"HuMab-TF-098 Fab fragment (Fab, V domains shown, Fab fragment of the HuMab; VH and VL as for the parent antibody) VH: QVQLVQSGAEVRKPGSSVKVSCKASGGSFNNYPIFWVRQAPGQGFEWMGRIIPILGITAYAQKFQGRVTITADKSTSTAYMELNSLRSEDTAVYYCAGGDDLDAFDIWGQGTMVSVSS VL: DIQMTQSPSSLSASVGDRVTITCRASQGISSWLAWYQQKPEKAPKSLIYAASSLQSGVPSRFSGSGSGTDFTLTISSLQPEDFATYYCQQYNSYPYTFGQGTKLEIK"
0.301,0.03,–,"HuMab-TF-013 Fab fragment (Fab, V domains shown, Fab fragment of the HuMab; VH and VL as for the parent antibody) VH: EVQLVQSGAEVKKPGESLKISCKGSGYSFTSYWIGWVRQMPGKGLEWMGIIYPGDSDTRYSPSFQGQVTISADKSISTAYLQWSSLKASDTAMYYCARIHRGAGYSSSWPGAFDIWGQGTMVTVSS VL: DIQMTQSPSSLSASVGDRVTITCRASQGISRWLAWYQQKPEKAPKSLIYAASSLQSGVPSRFSGSGSGTDFTLTISSLQPEDFATYYCQQYDSDPITFGQGTRLEIK"
